Source: patent US20240181022A1, “AMURINS LYSINS, AND LYSIN-ANTIMICROBIAL PEPTIDE (AMP) CONSTRUCTS ACTIVE AGAINST GRAM-NEGATIVE BACTERIA” (priority 2021, published 2024)
In brackets after ≈: the same amount, converted by molar mass. Like-named read-outs stand apart in the source and are kept apart here.

Columns and labels:
[1] = system: B. gladioli; test: MIC by broth microdilution against B. gladioli; assay type: cell-based, Burkholderia gladioli; details: B. gladioli isolates
Description: (§1) MIC values were determined using a modification of the standard broth microdilution reference method defined by the Clinical and Laboratory Standards Institute (CLSI), CLSL. 2015. Methods for Dilution Antimicrobial Susceptibility Tests for Bacteria That Grow Aerobically; Approved Standard-10th Edition. Clinical and Laboratory Standards Institute, Wayne, PA. The modification was based on the replacement of Mueller Hinton Broth with either CAA media (with and without NaCl) or CAA supplemented with 2.5% human serum. MIC is the minimum concentration of peptide sufficient to suppress at least 80% of the bacterial growth compared to control.
(§2) Based on these nine most prevalent strains, direct lytic agents, including GN370, AM1, AM2, and AM3, were evaluated against various isolates from each of the 9 strains. MICs and MBECs (Example 3) were determined, and a sputum inhibition test was conducted, as described below in Example 5.
(§3) The MICs for were determined as described below using the broth microdilution method for meropenem, GN370, AM1, AM2, and AM3. The results are shown below in Tables 8-12.

[2] = system: A. dolens; test: MIC by broth microdilution against A. dolens; assay type: cell-based, Achromobacter dolens; details: A. dolens isolates
Description: as §1, §2, §3

[3] = system: P. apista; test: MIC by broth microdilution against P. apista; assay type: cell-based, Pandoraea apista
Description: as §1, §2, §3

[4] = system: P. aeruginosa; test: Time-kill assay in cystic fibrosis patient sputum, P. aeruginosa; assay type: cell-based, Pseudomonas aeruginosa
Description: Sputum from 5 cystic fibrosis patients was pooled. The resulting mixture was not filtered, as it was very dense and not amenable to sterilization by filtration. Sputum is known to be a complex mixture of DNA, carbohydrates, and lipids ([…], 2016). As used herein, the term “sputum” refers to the mucus present in the respiratory tract of an animal, such as a human. Sputum may increase in thickness due to the irritation or infection, including bacterial infection, and in some instances, may be expelled by the animal while coughing. In certain instances, cystic fibrosis may be characterized by the presence of a thick, sticky mucus or sputum present in the lungs of cystic fibrosis patients. The activity of GN370, AM1, AM2, AM3, and meropenem was determined in the sputum using a time-kill assay format as disclosed in Zhang et al., Antimicrobial peptide therapeutics for cystic fibrosis, Antimicrobial Agents Chemother. 2005; 49(7):2921-2927. […] Untreated controls were included in addition to pretreatment plating (t=0) for a baseline CFU determination. Activity was also determined in the absence of sputum for comparison to activity observed in the presence of sputum.

[5] = system: B. cenocepacia; test: MIC by broth microdilution against B. cenocepacia; assay type: cell-based, Burkholderia cenocepacia; set-up: MIC Range: unit not given beside the values
Description: as §1, §2, §3

[6] = system: P. aeruginosa
[7] = system: S. maltophilia
Description: (§4) Biofilms are then washed and treated with e.g., a 2-fold dilution series of the lysin in TSBg at e.g., 37° C. for 24 hours. After treatment, wells are washed, air-dried at e.g., 37° C. and stained with e.g., 0.05% crystal violet for 10 minutes.
(§5) The antibiofilm activity of GN370, AM1, AM2, and AM3 was evaluated against various Gram-negative bacteria prevalent in cystic fibrosis patients, including P. aeruginosa, S. maltophilia, and A. xylosoxidans.
(§6) The MBEC (after 2-hour treatments) was determined as described in Jones and Wozniak, PsI Produced by Mucoid Pseudomonas aeruginosa Contributes to the Establishment of Biofilms and Immune Evasion, Am. […] Microbiol.

[8] = system: A. xylosoxidans; details: A. xylosoxidans (15); 2-hour treatment
Description: as §4, §5, §6

[9] = system: B. multivorans; details: B. multivorans (15); 2-hour treatment
Description: as §4, §5, §6

[10] = system: P. aeruginosa; remark: listed apart in the source
[11] = system: A. ruhlandii; assay type: cell-based, Achromobacter ruhlandii; details: A. ruhlandii (15); 2-hour treatment
Description: The MBEC (after 2-hour treatments) was determined as described in Jones and Wozniak, PsI Produced by Mucoid Pseudomonas aeruginosa Contributes to the Establishment of Biofilms and Immune Evasion, Am. Soc. Microbiol. 2017, 8(3):e00864-17. Meropenem and tobramycin were included as controls and were both poorly active, with MBEC90 values of >256 μg/mL (data not shown).

[12] = P. aeruginosa test organism of the sputum time-kill assay
[13] = S. maltophilia (26), 2-hour treatment
[14] = Pandoraea apista, N 11 (Table 26)
[15] = P. aeruginosa (28), 2-hour treatment
[16] = Burkholderia cenocepacia, N 15 (Table 26)
[17] = MDR P. aeruginosa isolates (n = 13)
[18] = Pseudomonas aeruginosa, AR Bank, N 67
[19] = Pseudomonas aeruginosa, Weill Cornell, N 55
[20] = Pseudomonas aeruginosa, all isolates, N 122
[21] = carbapenem-resistant P. aeruginosa isolates (n = 12)
[22] = mucoid P. aeruginosa isolates (n = 11)
[23] = α-hemolytic P. aeruginosa isolates (n = 13)

C[C@@H](O)[C@H]1C(=O)N2C(C(=O)O)=C(S[C@@H]3CN[C@H](C(=O)N(C)C)C3)[C@H](C)[C@H]12 [meropenem, reference compound]
MIC50 [1]: 1 µg/mL (≈ 2.61 µM) | MIC90 [1]: 2 µg/mL (≈ 5.22 µM) | MIC50 [2]: 2 µg/mL (≈ 5.22 µM) | MIC90 [2]: > 32 µg/mL | MIC50 ([3]; P. apista isolates): > 32 µg/mL | MIC90 ([3]; P. apista isolates): > 32 µg/mL | MIC Range ([3]; P. apista isolates): > 32 µg/mL | activity in the presence and absence of sputum [4]: poorly active | Log10 CFU/mL of sputum ([4]; absence of sputum, 1 hr): 5.38 Log10 CFU/mL of sputum | Log10 CFU/mL of sputum ([4]; absence of sputum, 3 hr): 4.98 Log10 CFU/mL of sputum | Log10 CFU/mL of sputum ([4]; absence of sputum, 24 hr): 6.38 Log10 CFU/mL of sputum | Log10 CFU/mL of sputum ([4]; presence of 10% sputum, 1 hr): 5.26 Log10 CFU/mL of sputum | Log10 CFU/mL of sputum ([4]; presence of 10% sputum, 3 hr): 4.78 Log10 CFU/mL of sputum | Log10 CFU/mL of sputum ([4]; presence of 10% sputum, 24 hr): 6.6 Log10 CFU/mL of sputum | MIC50 ([5]; B. cenocepacia isolates): 4 µg/mL (≈ 10.4 µM) | MIC90 ([5]; B. cenocepacia isolates): 8 µg/mL (≈ 20.9 µM) | MIC Range ([5]; B. cenocepacia isolates): 2-32 | MIC50 ([6]; P. aeruginosa isolates): 4 µg/mL (≈ 10.4 µM) | MIC90 ([6]; P. aeruginosa isolates): 32 µg/mL (≈ 83.4 µM) | MIC [6, 12]: (MIC = 0.125) | MIC ([6]; […], before serial passage): 0.5 µg/mL (≈ 1.3 µM)

B1: GN370: lysin-AMP construct, SEQ ID NO: 149: MIDR, FIRL and NPTH moieties N-terminal to GN202 lysin (protein)
chain: MIDRFIRLNPTHGPRRPRRPGRRAPVRTSQRGIDLIKSFEGLRLSAYQDSVGVWTIGYGTTRGVTRYMTITVEQAERMLSNDIQRFEPELDRLAKVPLNQNQWDALMSFVYNLGAANLASSTLLDLLNKGDYQGAADQFPHWVNAGGKRLDGLVKRRAAERALFLEPLS
modifications: GN370 lysin
MIC50 [1]: > 32 µg/mL | MIC90 [1]: > 32 µg/mL | MIC50 [2]: 32 µg/mL | MIC90 [2]: > 32 µg/mL | antibiofilm activity (MBEC) against S. maltophilia ([7]; 2-hour treatments): highly active | MBEC50 [7, 13]: 1 µg/mL | MBEC90 [7, 13]: 2 µg/mL | MBEC Range [7, 13]: 0.064-4 ^ μg/mL | MBEC50 [8]: 8 µg/mL | MBEC90 [8]: >256 µg/mL | MBEC50 [9]: 8 µg/mL | MBEC90 [9]: 64 µg/mL | MIC50 ([3]; P. apista isolates): > 32 µg/mL | MIC90 ([3]; P. apista isolates): > 32 µg/mL | MIC50 [3, 14]: >64 µg/mL | MIC90 [3, 14]: >64 µg/mL | MIC Range [3, 14]: >64 µg/mL | antibiofilm activity (MBEC) against P. aeruginosa ([10]; 2-hour treatments): highly active | MBEC50 ([10]; MDR and XDR P. aeruginosa (9)): 2 µg/mL | MBEC90 ([10]; MDR and XDR P. aeruginosa (9)): 4 µg/mL | MBEC Range ([10]; MDR and XDR P. aeruginosa (9)): 1 to 4 µg/mL | Number of isolates at MBEC 1 μg/mL ([10]; MDR and XDR P. aeruginosa (9)): 4 | Number of isolates at MBEC 2 μg/mL ([10]; MDR and XDR P. aeruginosa (9)): 4 | Number of isolates at MBEC 4 μg/mL ([10]; MDR and XDR P. aeruginosa (9)): 1 | MBEC50 [10, 15]: 1 µg/mL | MBEC90 [10, 15]: 2 µg/mL | MBEC Range [10, 15]: 0.064-4 ^ μg/mL | MBEC50 [11]: 4 µg/mL | MBEC90 [11]: 64 µg/mL | MBEC Range [11]: 4 to 64 µg/mL | effect of sputum on antibacterial activity ([4]; 10% CF sputum vs no sputum): not inhibited | Log10 CFU/mL of sputum ([4]; absence of sputum, 1 hr): 2.3 Log10 CFU/mL of sputum | Log10 CFU/mL of sputum ([4]; absence of sputum, 3 hr): 2.3 Log10 CFU/mL of sputum | Log10 CFU/mL of sputum ([4]; absence of sputum, 24 hr): 2.3 Log10 CFU/mL of sputum | Log10 CFU/mL of sputum ([4]; presence of 10% sputum, 1 hr): 3.9 Log10 CFU/mL of sputum | Log10 CFU/mL of sputum ([4]; presence of 10% sputum, 3 hr): 3.6 Log10 CFU/mL of sputum | Log10 CFU/mL of sputum ([4]; presence of 10% sputum, 24 hr): 2.3 Log10 CFU/mL of sputum | CFU reduction by 3 hours ([4]; time-kill): 1.5 log10 | CFU reduction by 24 hours ([4]; time-kill): > 3 log10 | MIC50 ([5]; B. cenocepacia isolates): > 32 µg/mL | MIC90 ([5]; B. cenocepacia isolates): > 32 µg/mL | MIC50 [5, 16]: >64 µg/mL | MIC90 [5, 16]: >64 µg/mL | MIC50 [6, 17]: 0.125 µg/mL | MIC90 [6, 17]: 0.5 µg/mL | MIC Range ([6]; MDR P. aeruginosa isolates (n = 13), in µg/mL): 0.0625-0.5 | MIC ([6]; P. aeruginosa ATCC 27853 (head of Table 19)): 1 µg/mL | MIC ([6]; P. aeruginosa PA25): PA25 (MIC = 2 μg/mL) | MIC90 ([6]; P. aeruginosa clinical and resistant isolates): 2 µg/mL | MIC50 ([6]; P. aeruginosa isolates): 0.25 µg/mL | MIC90 ([6]; P. aeruginosa isolates): 0.5 µg/mL | MIC Range ([6]; P. aeruginosa isolates, in µg/mL): 0.06-1 | MIC [6, 12]: (MIC = 0.5) | MIC50 [6, 18]: 1 µg/mL | MIC90 [6, 18]: 2 µg/mL | MIC Range [6, 18]: 0.25 to 2 µg/mL | MIC50 [6, 19]: 1 µg/mL | MIC90 [6, 19]: 2 µg/mL | MIC Range [6, 19]: 0.25 to 2 µg/mL | MIC50 [6, 20]: 1 µg/mL | MIC90 [6, 20]: 2 µg/mL | MIC Range [6, 20]: 0.25 to 2 µg/mL | MIC ([6]; XDR P. aeruginosa strain AR-769): 2 µg/mL | MIC ([6]; […], before serial passage): 1 µg/mL | activity (MIC) against P. aeruginosa isolates ([6]; all tested isolates, Tables 8-12): highly active | GN370 MIC50 [6, 21]: 0.25 µg/mL | GN370 MIC90 [6, 21]: 0.5 µg/mL | GN370 MIC Range ([6]; carbapenem-resistant P. aeruginosa isolates (n = 12), in µg/mL): 0.0625-1 | MIC50 [6, 22]: 0.25 µg/mL | MIC90 [6, 22]: 1 µg/mL | MIC Range ([6]; mucoid P. aeruginosa isolates (n = 11), in µg/mL): 0.0625-1 | MIC50 [6, 23]: 0.25 µg/mL | MIC90 [6, 23]: 1 µg/mL | MIC Range ([6]; α-hemolytic P. aeruginosa isolates (n = 13), in µg/mL): 0.0625-1
